Where two headings read alike, the source gives them in different places.
B1: control antibody 11F11-huG1 (antibody, from another filing, human IgG1, V domains shown)
VH: QVQLVESGGGVVQPGRSLRLSCATSGFTFSNYGMHWVRQAPGKGLEWVAVILYDGSNKYYPDSVKGRFTISRDNSKNTLYLQMNSLRAEDTAVYYCARGGSSWYPDSFDIWGQGTMVTVSS
VL: DIQMTQSPSSLSASVGDRVTITCRASQGISSWLAWYQQKPEKAPKSLIYAASSLQSGVPSRFSGSGSGTDFTLTISSLQPEDFATYYCQQYNSYPLTFGGGTKVEIKR
B2: CD73 antibody 2D4 (antibody, V domains shown)
VH: EVKLVESGGGLVQPGGSLKLSCATSGFTFSDYYMYWVRQTPEKRLEWVAYISNVGGSTYYPDTVKGRFTISRDNAKNTLYLQMSRLKSEDTAIYYCARGDGYYGYYFDVWGAGTTVTVSS
VL: QIVLTQSPAIMSASPGEKVTMTCSASSSVSYMHWYQQKSGTSPKRWIYDTSKLASGVPARFSGSGSGTSYSLTISSMEAEDAATYYCQQWSSNPYTFGGGTKLEIK
notes: also called Clone 2D4
B3: CD73 antibody 2H2 (antibody, V domains shown)
VH: EVKLVESGGGLVQPGGSLKLSCATSGFTFSDYYMYWVRQTPEKRLEWVAYISNVGGSTYYPDTVKGRFTISRDNAKNTLYLQMSRLKSEDTAMYYCARGDGYYGYYFDVWGAGTTVTVSS
VL: ENVLTQSPAIMSASPGEKVTMTCSASSSVSYMHWYQQKSGTSPKRWIYDTSKLASGVPTRFSGSGSGTSFSLTISSMEAEDAATYYCQQWSSNPYTFGGGTKLEIK
notes: also called Clone 2H2
B4: CD73 antibody 14E4 (antibody, V domains shown)
VH: QVQLQQSGPELVKPGASVKISCKASGYIFTNYYIHWVKQRPGQGLEWIGWIFPGSGNTKYSEKFKDKATLTADTSSSTAYMQLSSLTSEDSAVYFCAGLSDWGQGTTLTVSS
VL: DIQMTQSPSSLSASLGERVSLTCRASQDIGDRLIWLQQEPAGTFKRLIYATSSLDSGVPKRFSGSRSGSDYSLTISSLESEDFVDYYCLQYASSPWTFGGGTKLEIK
notes: Mouse variable regions on human IgG heavy chain constant region and human kappa constant region (chimeric IgG); also called Clone 14E4
B5: CD73 antibody 6A8 (antibody, V domains shown)
VH: QVQFQQSGAELARPGTSVKLSCKASGYIFTSYWIQWIKQRPGQGLEWIGAIYPGDGDTRYTQKFKGKATLTAEKSSSTAYMQLRSLASEDSAVYYCAGFASWGQGTLLTVSA
VL: DIQMTQSPSSLSASLGERVNLTCRASQDIGDSLIWLQQEPDGTIKRLIYATSSLDSGVPKRFSGSRSGSDYSLTISSLESEDLVDYYCLQYASSPFTFGGGTKLEIK
notes: Mouse variable regions on human IgG heavy chain constant region and human kappa constant region (chimeric IgG); also called Clone 6A8
B6: CD73 antibody 8A8 (antibody, V domains shown)
VH: QVQFQQSGAELARPGASVKLSCKASGYIFTSYWIQWIKQRPGQGLEWIGAIYPGDGDTRYTQKFKGKATLTADKSSSTAYMQLRSLASEDSAVYYCAGFASWGQGTLLTVSA
VL: DIQMTQSPSSLSASLGERVSLTCRASQDIGESLIWLQQEPDGTIKRLIYATSSLDSGVPKRFSGSRSGSDYSLSISSLESDDFVDYYCLQYSSSPYTFGGGTKLEIK
notes: Mouse variable regions on human IgG heavy chain constant region and human kappa constant region (chimeric IgG); also called Clone 8A8
B7: CD73 antibody 7E10 (antibody, V domains shown)
VH: QVQFQQSGAELVRPGASVKLSCKASGYIFSSYWIQWVKQRPGQGLEWIGAIYPGDGDTRYTQKFKDKATLTADKSSSTAYMQLSSLASEDSAVYYCAGFASWGQGTLVTVSA
VL: DIQMTQSPSSLSASLGERVSLTCRASQDIGSSLNWLQQEPNGTIKRLIYATSSLDSGVPKRFSGSRSGSDYSLTISSLESEDFADYYCLQYASSPYTFGGGTKLEIK
notes: Mouse variable regions on human IgG heavy chain constant region and human kappa constant region (chimeric IgG); also called Clone 7E10
B8: CD73 antibody 14H10 (antibody, V domains shown)
VH: QIQLQQSGAELARPGASVNLSCKASGYSFTSYWMQWLKQRPGQGLEWIGAIYPGDGDTRYTQKFKGKATLTADKSSSTAYMQLSSLASEDSAVYYCALFSYWGQGTLVTVSA
VL: DIQMTQSPSSLSASLGERVSLTCRASQDIGSSLNWLQQEPDGTFKRLIYATSTLDSGVPKRFSGSRSGSDYSLTISSLESEDFVDYYCLQYASFPYTFGGGTKLEIK
notes: Mouse variable regions on human IgG heavy chain constant region and human kappa constant region (chimeric IgG)
B9: CD73 antibody 22C12 (antibody, V domains shown)
VH: QVQFQQSGAELARPGASVKLSCKASGYTFTGYWIQWVKQRPGQGLEWIGAIYPGDDDTRYTQKFKGRATLTADTSSSTAYMQLSSLASEDSAVYYCARGNWDDWDFDVWGAGTTVTVSS
VL: DIQMTQTTSSLSASLGDRVTISCRASQDISNYLNWYQQKPDGTVKLLIHYTSRLHSGVPSRFSGSGSGTDYSLTISNLEQEDIATYFCQQGDTLPWTFGGGTKLEIK
notes: Mouse variable regions on human IgG heavy chain constant region and human kappa constant region (chimeric IgG); also called Clone 22C12; mAb22C12

Legend:
[1] = target: T1, human CD73 on Calu6 cells (human, UniProt P21589 27-549); assay: cell-based or functional assay
T1 sequence (looked up): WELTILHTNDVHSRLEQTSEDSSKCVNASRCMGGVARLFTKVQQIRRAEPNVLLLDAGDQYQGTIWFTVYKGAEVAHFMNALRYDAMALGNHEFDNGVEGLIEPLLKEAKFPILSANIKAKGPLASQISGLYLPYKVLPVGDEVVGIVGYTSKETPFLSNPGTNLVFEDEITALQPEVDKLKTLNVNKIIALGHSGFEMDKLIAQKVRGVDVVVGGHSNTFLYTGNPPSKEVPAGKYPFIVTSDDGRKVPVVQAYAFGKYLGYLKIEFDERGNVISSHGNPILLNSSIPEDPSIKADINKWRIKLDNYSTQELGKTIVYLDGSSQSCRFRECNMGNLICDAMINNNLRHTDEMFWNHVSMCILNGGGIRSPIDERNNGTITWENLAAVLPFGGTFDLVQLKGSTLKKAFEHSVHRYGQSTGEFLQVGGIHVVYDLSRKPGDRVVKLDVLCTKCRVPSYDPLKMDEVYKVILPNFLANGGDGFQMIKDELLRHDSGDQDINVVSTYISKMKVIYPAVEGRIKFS

[2] = target: T1, human CD73 on Calu6 cells; assay: cell-based or functional assay; remark: listed apart in the source
[3] = target: T1, human CD73 on Calu6 cells; assay: cell-based or functional assay; remark: listed apart in the source
[4] = target: T2, recombinant human CD73 extracellular domain (Trp27-Lys546) with C-terminal 6-histidine tag (human, UniProt P21589 27-547); assay: ELISA, plate coated with recombinant CD73 extracellular domain
T2 construct: also called hCD73; hCD73-cHis
T2 sequence: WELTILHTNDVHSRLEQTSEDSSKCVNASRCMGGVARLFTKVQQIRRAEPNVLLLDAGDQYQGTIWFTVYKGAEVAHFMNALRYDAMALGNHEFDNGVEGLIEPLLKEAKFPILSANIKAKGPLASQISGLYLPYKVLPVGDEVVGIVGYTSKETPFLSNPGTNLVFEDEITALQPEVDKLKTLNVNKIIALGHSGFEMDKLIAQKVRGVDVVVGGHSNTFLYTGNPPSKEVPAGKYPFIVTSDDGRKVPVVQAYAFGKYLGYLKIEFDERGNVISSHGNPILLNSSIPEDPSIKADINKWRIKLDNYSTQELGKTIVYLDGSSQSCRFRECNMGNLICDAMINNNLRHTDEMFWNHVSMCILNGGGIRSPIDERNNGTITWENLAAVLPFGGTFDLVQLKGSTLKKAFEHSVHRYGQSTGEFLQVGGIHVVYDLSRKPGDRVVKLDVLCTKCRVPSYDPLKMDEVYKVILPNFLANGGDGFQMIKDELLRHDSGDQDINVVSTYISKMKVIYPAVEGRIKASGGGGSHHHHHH

[5] = target: T3, recombinant cynomolgus monkey CD73 extracellular domain (Trp27-Lys546) (cynomolgus monkey, UniProt P21589 27-547 (human entry)); assay: as above
T3 construct: also called cynoCD73; recombinant monkey CD73 extracellular domain
T3 chain: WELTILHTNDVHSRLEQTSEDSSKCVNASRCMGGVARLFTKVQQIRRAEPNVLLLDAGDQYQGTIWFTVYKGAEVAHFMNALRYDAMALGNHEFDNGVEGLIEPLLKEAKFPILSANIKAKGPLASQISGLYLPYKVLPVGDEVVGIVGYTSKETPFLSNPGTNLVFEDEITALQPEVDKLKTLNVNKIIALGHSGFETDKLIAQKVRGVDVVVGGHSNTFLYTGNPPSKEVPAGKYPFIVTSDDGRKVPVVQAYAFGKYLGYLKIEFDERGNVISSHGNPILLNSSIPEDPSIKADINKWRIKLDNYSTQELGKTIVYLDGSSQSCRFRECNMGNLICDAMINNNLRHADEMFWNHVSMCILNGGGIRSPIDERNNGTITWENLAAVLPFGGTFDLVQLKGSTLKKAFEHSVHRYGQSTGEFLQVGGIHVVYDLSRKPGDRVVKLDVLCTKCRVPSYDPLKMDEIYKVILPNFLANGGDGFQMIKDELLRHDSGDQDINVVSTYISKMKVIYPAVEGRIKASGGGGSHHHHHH

[6] = target: T4, human full-length CD73 on hCD73-CHO-1C11 cells (human, UniProt P21589 27-549); assay: FACS on CHO-CD73-1C11 cells
T4 construct: it may be a nucleotide entry; also called CHO-CD73-1C11
T4 sequence: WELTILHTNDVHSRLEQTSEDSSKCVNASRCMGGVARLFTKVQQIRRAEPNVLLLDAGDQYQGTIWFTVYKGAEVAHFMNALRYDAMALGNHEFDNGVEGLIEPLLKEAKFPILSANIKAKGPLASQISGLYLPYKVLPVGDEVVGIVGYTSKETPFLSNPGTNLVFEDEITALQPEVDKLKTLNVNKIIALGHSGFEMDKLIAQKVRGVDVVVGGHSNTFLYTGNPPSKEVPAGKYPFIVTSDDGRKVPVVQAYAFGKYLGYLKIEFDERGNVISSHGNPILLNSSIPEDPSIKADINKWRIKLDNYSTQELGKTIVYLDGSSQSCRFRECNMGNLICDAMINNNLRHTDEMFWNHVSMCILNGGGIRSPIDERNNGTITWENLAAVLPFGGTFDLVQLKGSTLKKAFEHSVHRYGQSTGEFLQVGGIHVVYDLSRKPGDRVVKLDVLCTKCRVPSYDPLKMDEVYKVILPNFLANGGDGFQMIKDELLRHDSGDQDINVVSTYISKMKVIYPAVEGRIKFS

[7] = target: T1, human CD73 on Calu6 cells; assay: FACS on Calu6 cells

Binder | CD73 endocytosis ratio %, 0 minute [1] [%] | CD73 endocytosis ratio %, 30 minutes [1] [%] | CD73 endocytosis ratio %, 120 minutes [1] [%] | CD73 endocytosis ratio %, 240 minutes [1] [%] | CD73 endocytosis ratio %, 30 minutes [2] [%] | CD73 endocytosis ratio %, 60 minutes [2] [%] | CD73 endocytosis ratio %, 120 minutes [2] [%] | CD73 endocytosis ratio %, 240 minutes [2] [%] | CD73 endocytosis ratio %, 480 minutes [2] [%] | Inhibition of CD73 enzyme activity IC50(nM), Calu6 [3] [nM] | EC50 [4] [nM] | EC50 [5] [nM] | EC50 [6] [nM] | EC50 [7] [nM]
B1 | 0 | 28 | 31 | 46 |  |  |  |  |  |  |  |  |  | 
B2 |  |  |  |  | 19.1 | 28.1 | 29.7 | 39.5 | 36.9 | 0.47 | 0.02 | 0.02 | 1.76 | 1.25
B3 |  |  |  |  | 22.4 | 27.4 | 45.8 | 33.4 | 49.3 | 4.03 | 0.02 | 0.02 | 1.53 | 0.93
B4 |  |  |  |  |  | 19.3 | 2.6 | 12.7 | 2.6 | 4.57 | 0.06 | 0.18 | 6.55 | 2.56
B5 |  |  |  |  |  | 16.2 |  |  |  | 6.63 | 0.08 | 0.09 | 11 | 3.51
B6 |  |  |  |  | 21.2 | 25.6 | 27.3 | 44.2 | 40.5 | 4.89 | 0.02 | 0.02 | 1.47 | 0.61
B7 |  |  |  |  | 9.9 | 25.1 |  | 6.6 | 6.2 | 7.66 | 0.07 | 0.11 | 8.59 | 2.52
B8 |  |  |  |  |  | 33.1 |  |  |  | 1.71 | 0.03 | 0.07 | 2.62 | 2.28
B9 |  |  |  |  |  | 6.1 | 11.1 |  | 13.2 | 0.97 | 0.04 | 0.05 | 1.43 | 1.2

Source: patent US20220162331A1 (CHENGDU CONMED BIOSCIENCES, published 2022)
